Results reported in patent publication US12042530B2, “Target peptides for immunotherapy and diagnostics” (University of Virginia Patent Foundation, priority 2012, dated 2024).
Non-standard residues stand in square brackets, D forms with d. No end group written: not given here. pT = C[C@@H](OP(=O)(O)O)[C@H](N)C(=O)O; pS = N[C@@H](COP(=O)(O)O)C(=O)O

Tests used:
[1] = biological target: T1, HLA-B*0702 (HLA-B7) peptide complexes (Homo sapiens, UniProt P01889); assay: HLA-B*0702 phosphopeptides associated with leukemia samples (isolation of HLA-associated peptides); details: for Copies/cell class, ALL1: acute lymphoblastic leukemia sample ALL1; for Copies/cell class, HCL1: hairy cell leukemia sample HCL1; for Copies/cell class, B Cell: healthy B cells; for Copies/cell class, T Cell: healthy T cells
T1 construct: endogenous in cells; host or cells: JY B-lymphoblastoid line; primary ALL, CLL, HCL, AML samples; bone marrow; healthy B and T cells
Excerpt: (§1) To identify naturally processed tumor-associated phosphopeptides, HLA-A*0201 (HLA-A2) and HLA-B*0702 (HLA-B7) peptide complexes from four (4) chronic lymphocytic leukemia (CLL) tumor samples, a mantle cell lymphoma sample (MCL), one acute lymphoblastic leukemia (ALL), and an acute myeloid leukemia (AML) sample, in addition to healthy splenic T and B-cells and the cultured lymphoblastoid cell line JY were isolated. These efforts yielded 10 HLA-A2-restricted and 86 HLA-B7-restricted phosphopeptide antigens (see Tables 6 and 7).
(§2) All cell lines were grown at 37° C. with 5% CO2 in growth medium consisting of RPMI 1640 supplemented with 10% FCS and two mM L-glutamine. Blood or leukapheresis samples were taken from patients with high-burden leukemia in heparin. Tumor cells were recovered by layering the blood over density gradient (Ficoll) and collecting the tumor layer following centrifugation. The tumor was washed in tris-buffered saline (TBS). The purity of the tumor was assessed using flow cytometry and was >98% pure in all cases. For healthy T and B-cell populations, a normal spleen sample processed and tonsil sample was collected and lymphocytes released through mechanical disruption. Mononuclear cells were isolated using a density gradient and 10^9 T cells isolated using anti-CD19 or anti-CD3 microbeads (Miltenyi Biotec Inc., Auburn, California, United States of America) with purity >98% were obtained. Bone marrow sample was obtained from an elective orthopedic procedure and red cell-depleted using hypotonic lysis. This sample was not processed further.
(§3) Class I MHC molecules were immunoaffinity purified from the JY cell line or from primary tumor samples, and their associated peptides were extracted as previously described in Zarling et al., 2006. Approximately 1.2-14×10^9 cells were lysed in a solution containing 20 mM Tris-HCl (pH 8.0), 150 mM NaCl, 1% CHAPS, one mM PMSF, five μg/mL aprotinin, 10 μg/mL leupeptin, 10 μg/mL pepstatin A, 1 μg/ml calyculin A, and phosphatase inhibitor (cocktails I and II; Sigma-Aldrich). The mixture was subjected to centrifugation and the resulting supernatant was passed over protein A sepharose pre-loaded with the HLA-A2-specific antibody BB7.2 or HLA-B7-specific antibody MEL Peptides were eluted from the purified class I MHC molecules with 10% acetic acid.

HLA-B*0702 = biological target: T2, HLA-B*0702 (Homo sapiens, UniProt P01889); assay: Phosphopeptides presented in association with class I molecules (HLA-B*0702) on cancer cells: melanoma and/or leukemia; design: key: Melanoma (M); Leukemia (L); L/M: Melanoma (M) and/or Leukemia (L); details: cancer type on which the HLA-B*0702 phosphopeptide is presented
T2 construct: endogenous in cells; host or cells: melanoma and/or leukemia cells

[2] = biological target: T3, HLA-A*0201 (HLA-A2) peptide complexes (Homo sapiens, UniProt P04439, D140Y/D185E/D98H/E176V/E277Q/G131W/G231S/I119V/I121R/I166T/I218V/L300P/L318F/N151K/N90K/P208A/P217A/Q86G/Q94H/R138H/R169H/T345S); assay: HLA-A*0201 phosphopeptides associated with leukemia samples (isolation of HLA-associated peptides)
T3 construct: endogenous in cells; host or cells: JY B-lymphoblastoid line; primary CLL, MCL, AML, ALL samples; healthy splenic T and B cells
Excerpt: as §1, §2, §3

Copies/cell class, ALL1 [1] | L/M (HLA-B*0702) | Copies/cell class, AML1 [1] | Substance | also measured
4 (4 indicates >25 copies per cell) | L | – | 349 (RPV[pT]PVSDL; listed as Homo sapiens) [compound 349] | Copies/cell class, CLL2 [1]: 2 (2 indicates 1-5 copies/cell); Copies/cell class, JY [1]: 4 (4 indicates >25 copies per cell); Copies/cell class, HCL1 [1]: 1 (1 indicates <1 copy/cell); Copies/cell class, B Cell [1]: 2 (2 indicates 1-5 copies/cell); Copies/cell class, T Cell [1]: 2 (2 indicates 1-5 copies/cell)
1 (1 indicates <1 copy/cell) | L | – | 350 (RPW[pS]PAVSA; listed as Homo sapiens) [compound 350] | Copies/cell class, JY [1]: 1 (1 indicates <1 copy/cell); Copies/cell class, HCL1 [1]: 1 (1 indicates <1 copy/cell)
2 (2 indicates 1-5 copies/cell) | L | 2 (2 indicates 1-5 copies/cell) | 351 (RPY[pS]PPFFSL; listed as Homo sapiens) [compound 351] | Copies/cell class, JY [1]: 2 (2 indicates 1-5 copies/cell); Copies/cell class, B Cell [1]: 2 (2 indicates 1-5 copies/cell); Copies/cell class, T Cell [1]: 2 (2 indicates 1-5 copies/cell)
– | L | 4 (4 indicates >25 copies per cell) | 352 (RRK[pS]QVAEL; listed as Homo sapiens) [compound 352] | –
– | L | 1 (1 indicates <1 copy/cell) | 356 (RRS[pS]LDAEIDSL; listed as Homo sapiens) [compound 356] | –
1 (1 indicates <1 copy/cell) | L | – | 358 (RSE[pS]KDRKL; listed as Homo sapiens) [compound 358] | –
1 (1 indicates <1 copy/cell) | L | – | 359 (RSG[pS]LERKV; listed as Homo sapiens) [compound 359] | –
1 (1 indicates <1 copy/cell) | L | – | 360 (RSL[pS]PGGAA; listed as Homo sapiens) [compound 360] | –
2 (2 indicates 1-5 copies/cell) | L | – | 361 (RSL[pS]PLLF; listed as Homo sapiens) [compound 361] | Copies/cell class, B Cell [1]: 1 (1 indicates <1 copy/cell); Copies/cell class, T Cell [1]: 1 (1 indicates <1 copy/cell)
1 (1 indicates <1 copy/cell) | L | – | 363 (RTE[pS]DSGLKK; listed as Homo sapiens) [compound 363] | –
– | L | 2 (2 indicates 1-5 copies/cell) | 366 (RVR[pS]PTRSP; listed as Homo sapiens) [compound 366] | –
1 (1 indicates <1 copy/cell) | L | – | 367 (SPA[pS]PKISL; listed as Homo sapiens) [compound 367] | Copies/cell class, CLL2 [1]: 1 (1 indicates <1 copy/cell); Copies/cell class, CLL4 [1]: 1 (1 indicates <1 copy/cell); Copies/cell class, JY [1]: 4 (4 indicates >25 copies per cell); Copies/cell class, HCL1 [1]: 1 (1 indicates <1 copy/cell)
– | L | 1 (1 indicates <1 copy/cell) | 368 (SPEKAGRR[pS]SL; listed as Homo sapiens) [compound 368] | –
– | L | 1 (1 indicates <1 copy/cell) | 370 (SPGLARKR[pS]L; listed as Homo sapiens) [compound 370] | –
1 (1 indicates <1 copy/cell) | L | 1 (1 indicates <1 copy/cell) | 371 (SPK[pS]PGLKA; listed as Homo sapiens) [compound 371] | Copies/cell class, CLL2 [1]: 3 (3 indicates 6-25 copies per cell); Copies/cell class, CLL4 [1]: 3 (3 indicates 6-25 copies per cell); Copies/cell class, JY [1]: 4 (4 indicates >25 copies per cell); Copies/cell class, HCL1 [1]: 2 (2 indicates 1-5 copies/cell); Copies/cell class, T Cell [1]: 1 (1 indicates <1 copy/cell); Copies/cell class, BM ([1]; healthy bone marrow): 1 (1 indicates <1 copy/cell)
– | L/M | 4 (4 indicates >25 copies per cell) | 374 (SPRR[pS]RSISL; listed as Homo sapiens) [compound 374] | –
1 (1 indicates <1 copy/cell) | L | 2 (2 indicates 1-5 copies/cell) | 377 (SPR[pS]PGKPM; listed as Homo sapiens) [compound 377] | Copies/cell class, CLL2 [1]: 1 (1 indicates <1 copy/cell); Copies/cell class, CLL4 [1]: 2 (2 indicates 1-5 copies/cell); Copies/cell class, JY [1]: 4 (4 indicates >25 copies per cell); Copies/cell class, HCL1 [1]: 2 (2 indicates 1-5 copies/cell)
– | L | 2 (2 indicates 1-5 copies/cell) | 379 (SPR[pS]PSTTYL; listed as Homo sapiens) [compound 379] | –
– | L | 2 (2 indicates 1-5 copies/cell) | 382 (SPS[pS]PSVRRQL; listed as Homo sapiens) [compound 382] | Copies/cell class, B Cell [1]: 2 (2 indicates 1-5 copies/cell); Copies/cell class, T Cell [1]: 2 (2 indicates 1-5 copies/cell)
– | L | 1 (1 indicates <1 copy/cell) | 383 (SPSTSRSGG[pS]SRL; listed as Homo sapiens) [compound 383] | –
1 (1 indicates <1 copy/cell) | L | – | 385 (TPAQPQRR[pS]L; listed as Homo sapiens) [compound 385] | –
1 (1 indicates <1 copy/cell) | L | – | 386 (TPI[pS]PGRASGM; listed as Homo sapiens) [compound 386] | –
– | L | 3 (3 indicates 6-25 copies per cell) | 387 (TPR[pS]PPLGL; listed as Homo sapiens) [compound 387] | Copies/cell class, CLL2 [1]: 3 (3 indicates 6-25 copies per cell); Copies/cell class, CLL4 [1]: 2 (2 indicates 1-5 copies/cell); Copies/cell class, JY [1]: 4 (4 indicates >25 copies per cell); Copies/cell class, HCL1 [1]: 3 (3 indicates 6-25 copies per cell)
– | L | 3 (3 indicates 6-25 copies per cell) | 388 (TPR[pS]PPLGLI; listed as Homo sapiens) [compound 388] | Copies/cell class, CLL2 [1]: 2 (2 indicates 1-5 copies/cell); Copies/cell class, CLL4 [1]: 2 (2 indicates 1-5 copies/cell); Copies/cell class, JY [1]: 4 (4 indicates >25 copies per cell); Copies/cell class, HCL1 [1]: 2 (2 indicates 1-5 copies/cell)
– | L | 1 (1 indicates <1 copy/cell) | 389 (VPR[pS]PKHAHSSSL; listed as Homo sapiens) [compound 389] | –
– | L | 1 (1 indicates <1 copy/cell) | 391 (YQR[pS]FDEVEGV; listed as Homo sapiens) [compound 391] | –
– | L | 2 (2 indicates 1-5 copies/cell) | 392 (YQR[pS]FDEVEGVF; listed as Homo sapiens) [compound 392] | –
– | – | – | 436 (KAKSPAPGL; SITE (1)..(9): One or more of the listed amino acids can be phosphorylated as set forth in the Tables; listed as Homo sapiens) [compound 436] | Copies/cell class, CLL2 ([2]; CLL2): 1 (1 indicates <1 copy/cell); Copies/cell class, CLL3 ([2]; CLL3): 0; Copies/cell class, CLL4 ([2]; CLL4): 0; Copies/cell class, JY ([2]; EBV transformed B lymphoblastoid cell line JY): 0; Copies/cell class, AML1 ([2]; acute myeloid leukemia sample AML1): 0; Copies/cell class, CLL1 ([2]; chronic lymphocytic leukemia sample CLL1): 0; Copies/cell class, B Cell ([2]; healthy B cells): 0; Copies/cell class, T Cell ([2]; healthy T cells): 0; Copies/cell class, MCL ([2]; mantle cell lymphoma sample): 0
